Test results published in publication PMC9482650, “Quantitative fragmentomics allow affinity mapping of interactomes” (Nature Communications, 2022).

Experiments:
Assay in all cases: holdup assay
Set-up in all cases: key: below the threshold = too weak to quantify, mostly under pKd 3.1 to 4
APBA1_1, Q02410 = biological target: T1, APBA1_1, Q02410
T1 sequence (Q02410 651-752, limits assumed, looked up): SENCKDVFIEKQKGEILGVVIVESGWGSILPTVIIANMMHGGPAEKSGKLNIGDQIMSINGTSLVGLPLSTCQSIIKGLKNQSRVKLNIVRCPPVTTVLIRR

APBA2_2, Q99767 = biological target: T2, APBA2_2, Q99767
T2 sequence (Q99767 654-744, limits assumed, looked up): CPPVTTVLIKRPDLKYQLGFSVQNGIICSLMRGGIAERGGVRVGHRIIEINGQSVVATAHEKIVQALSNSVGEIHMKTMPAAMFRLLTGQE

CASK, O14936 = biological target: CASK, O14936
CASK, O14936, sequence (O14936 487-570): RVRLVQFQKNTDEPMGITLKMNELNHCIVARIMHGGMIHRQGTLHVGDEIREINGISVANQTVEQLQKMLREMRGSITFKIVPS

DFNB31_2, Q9P202 = biological target: T3, DFNB31_2, Q9P202
T3 sequence (Q9P202 274-371, limits assumed, looked up): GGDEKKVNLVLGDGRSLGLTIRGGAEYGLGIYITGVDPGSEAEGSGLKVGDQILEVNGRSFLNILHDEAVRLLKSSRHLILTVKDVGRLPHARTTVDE

DFNB31_3, Q9P202 = biological target: T4, DFNB31_3, Q9P202
T4 sequence (Q9P202 811-907, limits assumed, looked up): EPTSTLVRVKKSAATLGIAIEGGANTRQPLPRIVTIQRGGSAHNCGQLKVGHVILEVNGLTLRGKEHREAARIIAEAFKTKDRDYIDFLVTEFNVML

DLG4_2, P78352 = biological target: DLG4_2, P78352
DLG4_2, P78352, sequence (P78352 155-259): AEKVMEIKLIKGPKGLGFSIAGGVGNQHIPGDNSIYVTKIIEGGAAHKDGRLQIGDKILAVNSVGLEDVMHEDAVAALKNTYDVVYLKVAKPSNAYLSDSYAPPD

DLG4_3, P78352 = biological target: DLG4_3, P78352
DLG4_3, P78352, sequence (P78352 306-403): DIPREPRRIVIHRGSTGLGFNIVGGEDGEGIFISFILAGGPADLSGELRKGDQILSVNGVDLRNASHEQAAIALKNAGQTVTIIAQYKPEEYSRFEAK

FRMPD2_2, Q68DX3 = biological target: FRMPD2_2, Q68DX3
FRMPD2_2, Q68DX3, sequence (Q68DX3 944-1038): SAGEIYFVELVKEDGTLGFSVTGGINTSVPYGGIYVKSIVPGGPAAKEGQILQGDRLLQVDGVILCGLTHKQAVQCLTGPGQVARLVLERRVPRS

GOPC, Q9HD26 = biological target: GOPC, Q9HD26
GRID2IP_1, A4D2P6 = biological target: GRID2IP_1, A4D2P6
GRID2IP_1, A4D2P6, sequence (A4D2P6 1-87): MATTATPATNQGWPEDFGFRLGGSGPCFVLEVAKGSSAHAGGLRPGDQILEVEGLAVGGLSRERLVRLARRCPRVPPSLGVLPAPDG

GRIP1_3, Q9Y3R0 = biological target: T5, GRIP1_3, Q9Y3R0
T5 sequence (Q9Y3R0 247-346, limits assumed, looked up): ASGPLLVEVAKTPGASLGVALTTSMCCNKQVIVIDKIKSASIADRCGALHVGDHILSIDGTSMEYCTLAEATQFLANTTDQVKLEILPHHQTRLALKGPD

GRIP1_7, Q9Y3R0 = biological target: T6, GRIP1_7, Q9Y3R0
T6 sequence (Q9Y3R0 999-1096, limits assumed, looked up): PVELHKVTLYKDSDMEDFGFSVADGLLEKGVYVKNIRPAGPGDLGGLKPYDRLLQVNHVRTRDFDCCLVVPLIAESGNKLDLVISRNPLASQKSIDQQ

GRIP2_3, Q9C0E4 = biological target: GRIP2_3, Q9C0E4
GRIP2_3, Q9C0E4, sequence (Q9C0E4 238-339): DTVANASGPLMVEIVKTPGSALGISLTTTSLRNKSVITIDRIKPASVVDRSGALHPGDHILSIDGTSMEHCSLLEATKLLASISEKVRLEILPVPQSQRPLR

Inadl_8, Q8NI35 = biological target: Inadl_8, Q8NI35
Inadl_8, Q8NI35, sequence (Q8NI35 1425-1530): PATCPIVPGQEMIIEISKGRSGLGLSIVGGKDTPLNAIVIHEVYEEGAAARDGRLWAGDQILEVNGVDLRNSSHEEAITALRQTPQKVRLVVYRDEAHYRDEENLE

MAGI1_1, Q96QZ7 = biological target: MAGI1_1, Q96QZ7
MAGI1_1, Q96QZ7, sequence (Q96QZ7 1-106): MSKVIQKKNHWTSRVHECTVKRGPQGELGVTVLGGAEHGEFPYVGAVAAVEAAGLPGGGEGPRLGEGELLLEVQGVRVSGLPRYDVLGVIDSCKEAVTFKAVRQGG

MAGI1_2, Q96QZ7 = biological target: MAGI1_2, Q96QZ7
MAGI1_2, Q96QZ7, sequence (Q96QZ7 456-580): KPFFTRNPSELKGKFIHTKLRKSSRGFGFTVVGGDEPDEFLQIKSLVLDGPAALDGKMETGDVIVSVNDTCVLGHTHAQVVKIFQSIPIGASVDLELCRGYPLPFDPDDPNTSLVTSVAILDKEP

MAST1, Q9Y2H9 = biological target: MAST1, Q9Y2H9
MAST1, Q9Y2H9, sequence (Q9Y2H9 962-1065): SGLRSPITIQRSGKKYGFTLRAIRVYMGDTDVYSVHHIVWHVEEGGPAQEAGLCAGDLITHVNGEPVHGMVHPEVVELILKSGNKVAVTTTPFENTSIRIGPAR

MPP6, Q9NZW5 = biological target: T7, MPP6, Q9NZW5
T7 sequence (Q9NZW5 125-219, limits assumed, looked up): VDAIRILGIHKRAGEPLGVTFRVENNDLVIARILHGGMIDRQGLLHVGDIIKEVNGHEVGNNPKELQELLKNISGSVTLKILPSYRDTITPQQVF

NHERF2_2, Q15599 = biological target: NHERF2_2, Q15599
NHERF2_2, Q15599, sequence (Q15599 142-238): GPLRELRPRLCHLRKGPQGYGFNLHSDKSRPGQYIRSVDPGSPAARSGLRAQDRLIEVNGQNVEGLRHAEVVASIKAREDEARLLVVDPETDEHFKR

PDZD7_3, Q9H5P4 = biological target: T8, PDZD7_3, Q9H5P4
T8 sequence (Q9H5P4 857-944, limits assumed, looked up): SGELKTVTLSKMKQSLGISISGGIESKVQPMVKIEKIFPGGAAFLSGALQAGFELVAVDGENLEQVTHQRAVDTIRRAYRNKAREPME

PDZRN4_1, Q6ZMN7 = biological target: PDZRN4_1, Q6ZMN7
PDZRN4_1, Q6ZMN7, sequence (Q6ZMN7 213-318): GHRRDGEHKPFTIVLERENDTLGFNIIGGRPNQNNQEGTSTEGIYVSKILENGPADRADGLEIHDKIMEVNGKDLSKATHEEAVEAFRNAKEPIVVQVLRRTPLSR

PTPN13_1, Q12923 = biological target: T9, PTPN13_1, Q12923
T9 sequence (Q12923 1088-1188, limits assumed, looked up): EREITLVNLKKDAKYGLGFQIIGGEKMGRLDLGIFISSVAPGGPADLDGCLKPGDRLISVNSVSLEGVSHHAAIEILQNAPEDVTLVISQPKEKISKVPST

SHANK1, Q9Y566 = biological target: T10, SHANK1, Q9Y566
T10 sequence (Q9Y566 658-767, limits assumed, looked up): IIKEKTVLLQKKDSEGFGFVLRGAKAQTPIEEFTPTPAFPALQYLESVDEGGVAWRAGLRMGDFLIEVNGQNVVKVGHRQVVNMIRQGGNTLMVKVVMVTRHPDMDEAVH

SYNJ2BP, P57105 = biological target: T11, SYNJ2BP, P57105
T11 sequence (P57105 8-110, limits assumed, looked up): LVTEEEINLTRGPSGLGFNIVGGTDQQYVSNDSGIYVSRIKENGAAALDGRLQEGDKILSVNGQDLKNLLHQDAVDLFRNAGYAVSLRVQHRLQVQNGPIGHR

TJP1_3, Q07157 = biological target: TJP1_3, Q07157
TJP1_3, Q07157, sequence (Q07157 416-512): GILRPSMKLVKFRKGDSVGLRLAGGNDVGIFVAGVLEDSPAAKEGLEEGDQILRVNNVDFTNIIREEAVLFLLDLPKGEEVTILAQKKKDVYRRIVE

MPDZ_12, O75970 = biological target: T12, MPDZ_12, O75970
T12 sequence (O75970 1857-1958, limits assumed, looked up): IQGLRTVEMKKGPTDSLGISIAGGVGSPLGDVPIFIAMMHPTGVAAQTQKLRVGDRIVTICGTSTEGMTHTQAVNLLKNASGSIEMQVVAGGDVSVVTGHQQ

[1] = plain residues with an end cap or a label only (N-terminal biotin on a linker: ado-ado)
[2] = modified: phospho on T at position -2 from the C-terminal residue
[3] = plain residues with an end cap or a label only (N-terminal biotin on a linker: (peg)3)

Measured: pKd

YLEPVLSSEL [ATP2A2, P16615;P16615-3]
4.03: DFNB31_3, Q9P202; [1]
4.83: MAST1, Q9Y2H9; [1]
4.91: PDZD7_3, Q9H5P4; [1]
4.67: SHANK1, Q9Y566; [1]
below the threshold: APBA1_1, Q02410; [1] | APBA2_2, Q99767; [1] | CASK, O14936; [1] | DFNB31_2, Q9P202; [1] | DLG4_2, P78352; [1] | DLG4_3, P78352; [1] | FRMPD2_2, Q68DX3; [1] | GOPC, Q9HD26; [1] | GRID2IP_1, A4D2P6; [1] | GRIP1_3, Q9Y3R0; [1] | GRIP1_7, Q9Y3R0; [1] | GRIP2_3, Q9C0E4; [1] | Inadl_8, Q8NI35; [1] | MAGI1_1, Q96QZ7; [1] | MAGI1_2, Q96QZ7; [1] | MPP6, Q9NZW5; [1] | PDZRN4_1, Q6ZMN7; [1] | PTPN13_1, Q12923; [1] | TJP1_3, Q07157; [1]
4.24: SYNJ2BP, P57105; [1]
4.46: NHERF2_2, Q15599; [1]

RLQRRRETQV [HPV18-E6_-2P, P06463]
below the threshold: APBA1_1, Q02410; [2] | APBA2_2, Q99767; [2] | CASK, O14936; [2] | DFNB31_2, Q9P202; [2] | FRMPD2_2, Q68DX3; [2] | GRID2IP_1, A4D2P6; [2] | GRIP1_3, Q9Y3R0; [2] | GRIP1_7, Q9Y3R0; [2] | GRIP2_3, Q9C0E4; [2] | Inadl_8, Q8NI35; [2] | MAGI1_1, Q96QZ7; [2] | MAGI1_2, Q96QZ7; [2] | MAST1, Q9Y2H9; [2] | MPDZ_12, O75970; [2] | NHERF2_2, Q15599; [2] | PDZD7_3, Q9H5P4; [2] | PDZRN4_1, Q6ZMN7; [2] | PTPN13_1, Q12923; [2] | SHANK1, Q9Y566; [2] | SYNJ2BP, P57105; [2] | TJP1_3, Q07157; [2]
3.57: MPP6, Q9NZW5; [2]
3.9: DFNB31_3, Q9P202; [2]
3.65: DLG4_2, P78352; [2]
3.51: DLG4_3, P78352; [2]

LPAHHNATRL [SLC34A1, Q06495;Q06495-1]
4.2: PDZRN4_1, Q6ZMN7; [1]
4.43: PDZD7_3, Q9H5P4; [1]
4.53: GOPC, Q9HD26; [1]
4.83: NHERF2_2, Q15599; [1]
below the threshold: APBA1_1, Q02410; [1] | APBA2_2, Q99767; [1] | CASK, O14936; [1] | DFNB31_2, Q9P202; [1] | DFNB31_3, Q9P202; [1] | DLG4_2, P78352; [1] | DLG4_3, P78352; [1] | FRMPD2_2, Q68DX3; [1] | GRID2IP_1, A4D2P6; [1] | GRIP1_3, Q9Y3R0; [1] | GRIP1_7, Q9Y3R0; [1] | GRIP2_3, Q9C0E4; [1] | MAGI1_1, Q96QZ7; [1] | MPDZ_12, O75970; [1] | MPP6, Q9NZW5; [1] | PTPN13_1, Q12923; [1] | SYNJ2BP, P57105; [1] | TJP1_3, Q07157; [1]
4.84: MAST1, Q9Y2H9; [1]
5.39: SHANK1, Q9Y566; [1]

NLNSSEGVPDLLV [SARS-CoV-E, P59637]
4.04: GRIP1_7, Q9Y3R0; [3]
3.79: MAST1, Q9Y2H9; [3]
3.99: SYNJ2BP, P57105; [3]
below the threshold: APBA1_1, Q02410; [3] | APBA2_2, Q99767; [3] | CASK, O14936; [3] | DFNB31_2, Q9P202; [3] | DFNB31_3, Q9P202; [3] | DLG4_2, P78352; [3] | DLG4_3, P78352; [3] | FRMPD2_2, Q68DX3; [3] | GOPC, Q9HD26; [3] | GRID2IP_1, A4D2P6; [3] | GRIP1_3, Q9Y3R0; [3] | GRIP2_3, Q9C0E4; [3] | MAGI1_1, Q96QZ7; [3] | MAGI1_2, Q96QZ7; [3] | MPDZ_12, O75970; [3] | MPP6, Q9NZW5; [3] | NHERF2_2, Q15599; [3] | PDZD7_3, Q9H5P4; [3] | PDZRN4_1, Q6ZMN7; [3] | PTPN13_1, Q12923; [3] | SHANK1, Q9Y566; [3] | TJP1_3, Q07157; [3]
3.96: Inadl_8, Q8NI35; [3]

KSGKQTMLVV [TRIM29, Q14134;Q14134-2]
below the threshold: APBA1_1, Q02410; [1] | APBA2_2, Q99767; [1] | DFNB31_2, Q9P202; [1] | DFNB31_3, Q9P202; [1] | DLG4_3, P78352; [1] | FRMPD2_2, Q68DX3; [1] | GOPC, Q9HD26; [1] | GRID2IP_1, A4D2P6; [1] | GRIP1_3, Q9Y3R0; [1] | GRIP1_7, Q9Y3R0; [1] | GRIP2_3, Q9C0E4; [1] | MAGI1_1, Q96QZ7; [1] | MAGI1_2, Q96QZ7; [1] | MAST1, Q9Y2H9; [1] | MPDZ_12, O75970; [1] | MPP6, Q9NZW5; [1] | NHERF2_2, Q15599; [1] | PDZD7_3, Q9H5P4; [1] | PTPN13_1, Q12923; [1] | SYNJ2BP, P57105; [1]
